T1: mutant BH3 peptide in which Thr119 was substituted to alanine (T119A)
T1 chain: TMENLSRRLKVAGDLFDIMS

T2: peptide corresponding to Beclin's BH3 domain (aa 108-127)
T2 chain: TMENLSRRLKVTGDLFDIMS

B1: Flag-tagged DAPk (protein)
chain: MTVFRQENVDDYYDTGEELGSGQFAVVKKCREKSTGLQYAAKFIKKRRTKSSRRGVSREDIEREVSILKEIQHPNVITLHEVYENKTDVILILELVAGGELFDFLAEKESLTEEEATEFLKQILNGVYYLHSLQIAHFDLKPENIMLLDRNVPKPRIKIIDFGLAHKIDFGNEFKNIFGTPEFVAPEIVNYEPLGLEADMWSIGVITYILLSGASPFLGDTKQETLANVSAVNYEFEDEYFSNTSALAKDFIRRLLVKDPKKRMTIQDSLQHPWIKPKDTQQALSRKASAVNMEKFKKFAARKKWKQSVRLISLCQRLSRSFLSRSNMSVARSDDTLDEEDSFVMKAIIHAINDDNVPGLQHLLGSLSNYDVNQPNKHGTPPLLIAAGCGNIQILQLLIKRGSRIDVQDKGGSNAVYWAARHGHVDTLKFLSENKCPLDVKDKSGEMALHVAARYGHADVAQLLCSFGSNPNIQDKEEETPLHCAAWHGYYSVAKALCEAGCNVNIKNREGETPLLTASARGYHDIVECLAEHGADLNACDKDGHIALHLAVRRCQMEVIKTLLSQGCFVDYQDRHGNTPLHVACKDGNMPIVVALCEANCNLDISNKYGRTPLHLAANNGILDVVRYLCLMGASVEALTTDGKTAEDLARSEQHEHVAGLLARLRKDTHRGLFIQQLRPTQNLQPRIKLKLFGHSGSGKTTLVESLKCGLLRSFFRRRRPRLSSTNSSRFPPSPLASKPTVSVSINNLYPGCENVSVRSRSMMFEPGLTKGMLEVFVAPTHHPHCSADDQSTKAIDIQNAYLNGVGDFSVWEFSGNPVYFCCYDYFAANDPTSIHVVVFSLEEPYEIQLNQVIFWLSFLKSLVPVEEPIAFGGKLKNPLQVVLVATHADIMNVPRPAGGEFGYDKDTSLLKEIRNRFGNDLHISNKLFVLDAGASGSKDMKVLRNHLQEIRSQIVSVCPPMTHLCEKIISTLPSWRKLNGPNQLMSLQQFVYDVQDQLNPLASEEDLRRIAQQLHSTGEINIMQSETVQDVLLLDPRWLCTNVLGKLLSVETPRALHHYRGRYTVEDIQRLVPDSDVEELLQILDAMDICARDLSSGTMVDVPALIKTDNLHRSWADEEDEVMVYGGVRIVPVEHLTPFPCGIFHKVQVNLCRWIHQQSTEGDADIRLWVNGCKLANRGAELLVLLVNHGQGIEVQVRGLETEKIKCCLLLDSVCSTIENVMATTLPGLLTVKHYLSPQQLREHHEPVMIYQPRDFFRAQTLKETSLTNTMGGYKESFSSIMCFGCHDVYSQASLGMDIHASDLNLLTRRKLSRLLDPPDPLGKDWCLLAMNLGLPDLVAKYNTSNGAPKDFLPSPLHALLREWTTYPESTVGTLMSKLRELGRRDAADFLLKASSVFKINLDGNGQEAYASSCNSGTSYNSISSVVSR
B2: DAPk's catalytic domain (DK1) (protein)
chain: MTVFRQENVDDYYDTGEELGSGQFAVVKKCREKSTGLQYAAKFIKKRRTKSSRRGVSREDIEREVSILKEIQHPNVITLHEVYENKTDVILILELVAGGELFDFLAEKESLTEEEATEFLKQILNGVYYLHSLQIAHFDLKPENIMLLDRNVPKPRIKIIDFGLAHKIDFGNEFKNIFGTPEFVAPEIVNYEPLGLEADMWSIGVITYILLSGASPFLGDTKQETLANVSAVNYEFEDEYFSNTSALAKDFIRRLLVKDPKKRMTIQDSLQHPWIKPKDTQQALS

Columns and labels:
[1] = target: T1, mutant BH3 peptide in which Thr119 was …
[2] = target: T2, peptide corresponding to Beclin's BH3 …

GST-Beclin-1, sequence (chain, as listed by the source): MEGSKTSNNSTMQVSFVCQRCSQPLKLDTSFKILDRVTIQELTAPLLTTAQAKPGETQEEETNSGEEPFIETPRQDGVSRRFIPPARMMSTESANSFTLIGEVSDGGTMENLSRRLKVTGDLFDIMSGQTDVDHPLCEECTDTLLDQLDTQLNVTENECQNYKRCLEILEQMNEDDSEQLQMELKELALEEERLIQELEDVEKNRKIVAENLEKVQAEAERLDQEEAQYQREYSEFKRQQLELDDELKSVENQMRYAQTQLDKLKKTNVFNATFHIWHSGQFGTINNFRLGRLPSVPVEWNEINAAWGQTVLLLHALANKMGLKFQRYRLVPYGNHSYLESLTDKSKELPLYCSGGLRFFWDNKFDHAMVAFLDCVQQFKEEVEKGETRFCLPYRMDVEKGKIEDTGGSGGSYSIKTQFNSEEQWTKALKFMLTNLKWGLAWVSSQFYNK
Flag-tagged Beclin-1, sequence (chain, as listed by the source): as above

| Protein | in vitro kinase assay, phosphorylation ([γ-33P]ATP, autoradiogram) (Flag-tagged Beclin-1) | in vitro kinase assay, phosphorylation ([γ-33P]ATP, autoradiogram) (GST-Beclin-1) | peptide phosphorylation, filter assay [1] | peptide phosphorylation, filter assay (total counts against substrate concentration) [2] |
| --- | --- | --- | --- | --- |
| B1 | The phosphorylation by Flag-tagged (60 ng) DAPk was also observed when Flag-tagged Beclin-1 (250 ng), immunoprecipitated from HEK293T cells, was used as a substrate | GST-Beclin-1, but not GST alone, was phosphorylated by DAPk | – | – |
| B2 | – | – | Changing Thr119 to alanine strongly inhibited the extent of peptide phosphorylation | DAPk phosphorylates Beclin's BH3 peptide in a dose-dependent manner |
